Columns and labels:
[1] = target: T1, human neonatal Fc receptor (hFcRn) (human, UniProt P55899 24-290; P61769 21-119); experiment: phage ELISA pH 7.4
T1 construct: Biotinylated in the ELISA, Octet and yeast assays; also called human FcRn; huFcRn
Experimental: (§1) Approximately 100 μL of biotinylated human FcRn at 2 μg/mL was added to the wells of MAXISORP™ plates coated with 10 μg/mL streptavidin. After washing with PBS plus 0.05% Tween 20 (PBST) five times, phage from the overnight cultures in MES buffer at pH 6.0 or pH 7.4 were added to the plates and incubated at room temperature for 1 hr. A horseradish peroxidase (HRP)-conjugated anti-M13 antibody was used to detect the binding phage, and the plates were scored by a microtiter plate reader using a wavelength in the visible range.
(§2) Binding was assessed by a quantitative enzyme-linked immunoadsorbent assay (ELISA). The ELISA scores reflect binding affinity, with higher scores meaning higher affinity. Typically, scores higher than about 3˜5 indicate binding above background. For library L5, the insertions are between the N169 and G170 according to the numbering in FIG. 2. For libraries 6A and 6B, the insertions are between L143 and T144 according to the numbering in FIG. 2.

[2] = target: T1, human neonatal Fc receptor (hFcRn); experiment: phage ELISA pH 6
Experimental: as §1, §2
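Note: higher score means stronger binding and above about 3 to 5 exceeds background.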

T1 sequence (P55899 24-290 limits assumed, chain 1 of 2): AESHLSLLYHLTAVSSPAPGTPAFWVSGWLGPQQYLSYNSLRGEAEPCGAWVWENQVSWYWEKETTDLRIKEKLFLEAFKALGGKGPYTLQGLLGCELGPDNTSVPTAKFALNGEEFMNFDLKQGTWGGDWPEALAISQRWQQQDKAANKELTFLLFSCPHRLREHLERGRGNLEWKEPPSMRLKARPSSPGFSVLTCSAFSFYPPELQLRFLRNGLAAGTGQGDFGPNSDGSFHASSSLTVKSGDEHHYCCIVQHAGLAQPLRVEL
T1 sequence (P61769 21-119 limits assumed, chain 2 of 2): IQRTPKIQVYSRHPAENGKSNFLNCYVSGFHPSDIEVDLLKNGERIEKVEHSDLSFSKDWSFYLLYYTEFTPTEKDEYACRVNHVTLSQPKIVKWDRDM

B1: L6B isolate with insertion SEQ ID NO: 455 (other)
chain: EPKSCDKTHTCPPCPAPELLGGPSVFLFPPKPKDTLMISRTPEVTCVVVDVSHEDPEVKFNWYVDGVEVHNAKTKPREEQYNSTYRVVSVLTVLHQDWLNGKEYKCKVSNKALPAPIEKTISKAKGQPREPQVYTLPPSRDELGGCVSAATSRTCGGTKNQVSLTCLVKGFYPSDIAVEWESNGQPENNYKTTPPVLDSDGSFFLYSKLTVDKSRWQQGNVFSCSVMHEALHNHYTQKSLSLSPGK
For B1, the ELISA score [1] was 0.3.

B2: L5 isolate with insertion SEQ ID NO: 392 (other)
chain: EPKSCDKTHTCPPCPAPELLGGPSVFLFPPKPKDTLMISRTPEVTCVVVDVSHEDPEVKFNWYVDGVEVHNAKTKPREEQYNSTYRVVSVLTVLHQDWLNGKEYKCKVSNKALPAPIEKTISKAKGQPREPQVYTLPPSRDELTKNQVSLTCLVKGFYPSDIAVEWESNGGCPHMFPWCGGGQPENNYKTTPPVLDSDGSFFLYSKLTVDKSRWQQGNVFSCSVMHEALHNHYTQKSLSLSPGK
B2 gave an ELISA score [2] of 95.1 and an ELISA score [1] of 15.1.

B3: L5 isolate with insertion SEQ ID NO: 408 (other)
chain: EPKSCDKTHTCPPCPAPELLGGPSVFLFPPKPKDTLMISRTPEVTCVVVDVSHEDPEVKFNWYVDGVEVHNAKTKPREEQYNSTYRVVSVLTVLHQDWLNGKEYKCKVSNKALPAPIEKTISKAKGQPREPQVYTLPPSRDELTKNQVSLTCLVKGFYPSDIAVEWESNGGCQKGWVFCGGGQPENNYKTTPPVLDSDGSFFLYSKLTVDKSRWQQGNVFSCSVMHEALHNHYTQKSLSLSPGK
B3 showed an ELISA score [2] of 72 and an ELISA score [1] of 0.4.

B4: L5 isolate with insertion SEQ ID NO: 406 (other)
chain: EPKSCDKTHTCPPCPAPELLGGPSVFLFPPKPKDTLMISRTPEVTCVVVDVSHEDPEVKFNWYVDGVEVHNAKTKPREEQYNSTYRVVSVLTVLHQDWLNGKEYKCKVSNKALPAPIEKTISKAKGQPREPQVYTLPPSRDELTKNQVSLTCLVKGFYPSDIAVEWESNGGCYQHHMECGGGQPENNYKTTPPVLDSDGSFFLYSKLTVDKSRWQQGNVFSCSVMHEALHNHYTQKSLSLSPGK
B4 was tested, and the ELISA score [2] was 73.1 and the ELISA score [1] was 0.4.

B5: L5 isolate with insertion SEQ ID NO: 397 (other)
chain: EPKSCDKTHTCPPCPAPELLGGPSVFLFPPKPKDTLMISRTPEVTCVVVDVSHEDPEVKFNWYVDGVEVHNAKTKPREEQYNSTYRVVSVLTVLHQDWLNGKEYKCKVSNKALPAPIEKTISKAKGQPREPQVYTLPPSRDELTKNQVSLTCLVKGFYPSDIAVEWESNGGCPFEFTQCGGGQPENNYKTTPPVLDSDGSFFLYSKLTVDKSRWQQGNVFSCSVMHEALHNHYTQKSLSLSPGK
B5 showed an ELISA score [2] of 87.3 and an ELISA score [1] of 1.8.

B6: L5 isolate with insertion SEQ ID NO: 437 (other)
chain: EPKSCDKTHTCPPCPAPELLGGPSVFLFPPKPKDTLMISRTPEVTCVVVDVSHEDPEVKFNWYVDGVEVHNAKTKPREEQYNSTYRVVSVLTVLHQDWLNGKEYKCKVSNKALPAPIEKTISKAKGQPREPQVYTLPPSRDELTKNQVSLTCLVKGFYPSDIAVEWESNGGCNVLDLFCGGGQPENNYKTTPPVLDSDGSFFLYSKLTVDKSRWQQGNVFSCSVMHEALHNHYTQKSLSLSPGK
Binder B6 has an ELISA score [1] of 0.3.

B7: L5 isolate with insertion SEQ ID NO: 396 (other)
chain: EPKSCDKTHTCPPCPAPELLGGPSVFLFPPKPKDTLMISRTPEVTCVVVDVSHEDPEVKFNWYVDGVEVHNAKTKPREEQYNSTYRVVSVLTVLHQDWLNGKEYKCKVSNKALPAPIEKTISKAKGQPREPQVYTLPPSRDELTKNQVSLTCLVKGFYPSDIAVEWESNGGCREPHPFCGGGQPENNYKTTPPVLDSDGSFFLYSKLTVDKSRWQQGNVFSCSVMHEALHNHYTQKSLSLSPGK
B7 showed an ELISA score [2] of 88.6 and an ELISA score [1] of 8.9.

B8: L5 isolate with insertion SEQ ID NO: 398 (other)
chain: EPKSCDKTHTCPPCPAPELLGGPSVFLFPPKPKDTLMISRTPEVTCVVVDVSHEDPEVKFNWYVDGVEVHNAKTKPREEQYNSTYRVVSVLTVLHQDWLNGKEYKCKVSNKALPAPIEKTISKAKGQPREPQVYTLPPSRDELTKNQVSLTCLVKGFYPSDIAVEWESNGGCQLGSMHCGGGQPENNYKTTPPVLDSDGSFFLYSKLTVDKSRWQQGNVFSCSVMHEALHNHYTQKSLSLSPGK
B8 was tested, and the ELISA score [2] was 86.5 and the ELISA score [1] was 0.4.

B9: L5 isolate with insertion SEQ ID NO: 399 (other)
chain: EPKSCDKTHTCPPCPAPELLGGPSVFLFPPKPKDTLMISRTPEVTCVVVDVSHEDPEVKFNWYVDGVEVHNAKTKPREEQYNSTYRVVSVLTVLHQDWLNGKEYKCKVSNKALPAPIEKTISKAKGQPREPQVYTLPPSRDELTKNQVSLTCLVKGFYPSDIAVEWESNGGCYENKTLCGGGQPENNYKTTPPVLDSDGSFFLYSKLTVDKSRWQQGNVFSCSVMHEALHNHYTQKSLSLSPGK
For B9, the ELISA score [2] was 86.3 and the ELISA score [1] was 1.6.

B10: L5 isolate with insertion SEQ ID NO: 404 (other)
chain: EPKSCDKTHTCPPCPAPELLGGPSVFLFPPKPKDTLMISRTPEVTCVVVDVSHEDPEVKFNWYVDGVEVHNAKTKPREEQYNSTYRVVSVLTVLHQDWLNGKEYKCKVSNKALPAPIEKTISKAKGQPREPQVYTLPPSRDELTKNQVSLTCLVKGFYPSDIAVEWESNGGCMMEFAQCGGGQPENNYKTTPPVLDSDGSFFLYSKLTVDKSRWQQGNVFSCSVMHEALHNHYTQKSLSLSPGK
With B10 the ELISA score [2] was 74.2 and the ELISA score [1] was 2.3.

B11: L5 isolate with insertion SEQ ID NO: 442 (other)
chain: EPKSCDKTHTCPPCPAPELLGGPSVFLFPPKPKDTLMISRTPEVTCVVVDVSHEDPEVKFNWYVDGVEVHNAKTKPREEQYNSTYRVVSVLTVLHQDWLNGKEYKCKVSNKALPAPIEKTISKAKGQPREPQVYTLPPSRDELTKNQVSLTCLVKGFYPSDIAVEWESNGGCNVLDLFCGGGQPENNYKTTPPVLDSDGSFFLYSKLTVDKSRWQQGNVFSCSVMHEALHNHYTQKSLSLSPGK
B11 gave an ELISA score [1] of 0.3.

B12: L5 isolate with insertion SEQ ID NO: 395 (other)
chain: EPKSCDKTHTCPPCPAPELLGGPSVFLFPPKPKDTLMISRTPEVTCVVVDVSHEDPEVKFNWYVDGVEVHNAKTKPREEQYNSTYRVVSVLTVLHQDWLNGKEYKCKVSNKALPAPIEKTISKAKGQPREPQVYTLPPSRDELTKNQVSLTCLVKGFYPSDIAVEWESNGGCILNFYGCGGGQPENNYKTTPPVLDSDGSFFLYSKLTVDKSRWQQGNVFSCSVMHEALHNHYTQKSLSLSPGK
Work on B12 yielded an ELISA score [2] of 89.5 and an ELISA score [1] of 23.5.

B13: L5 isolate with insertion SEQ ID NO: 403 (other)
chain: EPKSCDKTHTCPPCPAPELLGGPSVFLFPPKPKDTLMISRTPEVTCVVVDVSHEDPEVKFNWYVDGVEVHNAKTKPREEQYNSTYRVVSVLTVLHQDWLNGKEYKCKVSNKALPAPIEKTISKAKGQPREPQVYTLPPSRDELTKNQVSLTCLVKGFYPSDIAVEWESNGGCPANWGTCGGGQPENNYKTTPPVLDSDGSFFLYSKLTVDKSRWQQGNVFSCSVMHEALHNHYTQKSLSLSPGK
B13 was tested, and the ELISA score [2] was 74.8 and the ELISA score [1] was 0.5.

B14: L5 isolate with insertion SEQ ID NO: 407 (other)
chain: EPKSCDKTHTCPPCPAPELLGGPSVFLFPPKPKDTLMISRTPEVTCVVVDVSHEDPEVKFNWYVDGVEVHNAKTKPREEQYNSTYRVVSVLTVLHQDWLNGKEYKCKVSNKALPAPIEKTISKAKGQPREPQVYTLPPSRDELTKNQVSLTCLVKGFYPSDIAVEWESNGGCMVPFSMCGGGQPENNYKTTPPVLDSDGSFFLYSKLTVDKSRWQQGNVFSCSVMHEALHNHYTQKSLSLSPGK
Work on B14 yielded an ELISA score [1] of 0.6.

B15: L5 isolate with insertion SEQ ID NO: 402 (other)
chain: EPKSCDKTHTCPPCPAPELLGGPSVFLFPPKPKDTLMISRTPEVTCVVVDVSHEDPEVKFNWYVDGVEVHNAKTKPREEQYNSTYRVVSVLTVLHQDWLNGKEYKCKVSNKALPAPIEKTISKAKGQPREPQVYTLPPSRDELTKNQVSLTCLVKGFYPSDIAVEWESNGGCELQERWCGGGQPENNYKTTPPVLDSDGSFFLYSKLTVDKSRWQQGNVFSCSVMHEALHNHYTQKSLSLSPGK
Binder B15 has an ELISA score [2] of 75.5 and an ELISA score [1] of 0.3.

B16: L5 isolate with insertion SEQ ID NO: 405 (other)
chain: EPKSCDKTHTCPPCPAPELLGGPSVFLFPPKPKDTLMISRTPEVTCVVVDVSHEDPEVKFNWYVDGVEVHNAKTKPREEQYNSTYRVVSVLTVLHQDWLNGKEYKCKVSNKALPAPIEKTISKAKGQPREPQVYTLPPSRDELTKNQVSLTCLVKGFYPSDIAVEWESNGGCQHHIMQCGGGQPENNYKTTPPVLDSDGSFFLYSKLTVDKSRWQQGNVFSCSVMHEALHNHYTQKSLSLSPGK
B16 showed an ELISA score [2] of 73.4 and an ELISA score [1] of 0.4.

B17: L5 isolate with insertion SEQ ID NO: 393 (other)
chain: EPKSCDKTHTCPPCPAPELLGGPSVFLFPPKPKDTLMISRTPEVTCVVVDVSHEDPEVKFNWYVDGVEVHNAKTKPREEQYNSTYRVVSVLTVLHQDWLNGKEYKCKVSNKALPAPIEKTISKAKGQPREPQVYTLPPSRDELTKNQVSLTCLVKGFYPSDIAVEWESNGGCGHGWIFCGGGQPENNYKTTPPVLDSDGSFFLYSKLTVDKSRWQQGNVFSCSVMHEALHNHYTQKSLSLSPGK
B17 was tested, and the ELISA score [2] was 92.1 and the ELISA score [1] was 28.4.

B18: L5 isolate with insertion SEQ ID NO: 401 (other)
chain: EPKSCDKTHTCPPCPAPELLGGPSVFLFPPKPKDTLMISRTPEVTCVVVDVSHEDPEVKFNWYVDGVEVHNAKTKPREEQYNSTYRVVSVLTVLHQDWLNGKEYKCKVSNKALPAPIEKTISKAKGQPREPQVYTLPPSRDELTKNQVSLTCLVKGFYPSDIAVEWESNGGCMVPFSMCGGGQPENNYKTTPPVLDSDGSFFLYSKLTVDKSRWQQGNVFSCSVMHEALHNHYTQKSLSLSPGK
B18 was tested, and the ELISA score [1] was 0.6.

From patent US20140356358A1 (Amgen, published 2014)
